One block for each binder: values may come before it.
How the values were obtained:
[1] = target: T1, Recombinant Human MSP Receptor ECD-His tag (human, UniProt Q04912 25-957); experiment: SPR (Biacore), N-terminal VD;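 also: capture of antibodies or DVD-Ig proteins on an anti-mouse IgG chip surface, recombinant antigen injected at 10–200 nM in HBS-EP running buffer at 25 °C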
T1 construct: extracellular domain; bought reagent; also called RON

[2] = target: T2, Recombinant Human IGF1R (human, UniProt P08069 31-932); experiment: SPR (Biacore), N-terminal VD;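 also: capture of antibodies or DVD-Ig proteins on an anti-mouse IgG chip surface, recombinant antigen injected at 10–200 nM in HBS-EP running buffer at 25 °C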
T2 construct: bought reagent

[3] = target: T3, Recombinant Human ErbB3/FC Chimera-His tag (human, UniProt P21860 20-643); experiment: SPR (Biacore), N-terminal VD;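 also: capture of antibodies or DVD-Ig proteins on an anti-mouse IgG chip surface, recombinant antigen injected at 10–200 nM in HBS-EP running buffer at 25 °C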
T3 construct: bought reagent

[4] = target: T1, Recombinant Human MSP Receptor ECD-His …; experiment: SPR (Biacore)
Procedure: The BIACORE assay (Biacore, Inc, Piscataway, N.J.) determined the affinity of antibodies or DVD-Ig proteins with kinetic measurements of on-rate and off-rate constants. Binding of antibodies or DVD-Ig proteins to a target antigen (for example, a purified recombinant target antigen) was determined by surface plasmon resonance-based measurements with a Biacore® 1000 or 3000 instrument (Biacore AB, Uppsala. Sweden) using running HBS-EP (10 mM HEPES [pH 7.4], 150 mM NaCl, 3 mM EDTA, and 0.005% surfactant P20) at 25° C. […] For example, approximately 5000 RU of goat anti-mouse IgG, (Fcγ), fragment specific polyclonal antibody (Pierce Biotechnology Inc, Rockford, Ill.) diluted in 10 mM sodium acetate (pH 4.5) was directly immobilized across a CM5 research grade biosensor chip using a standard amine coupling kit according to manufacturer's instructions and procedures at 25 μg/ml. Unreacted moieties on the biosensor surface were blocked with ethanolamine. Modified carboxymethyl dextran surface in flowcell 2 and 4 was used as a reaction surface. Unmodified carboxymethyl dextran without goat anti-mouse IgG in flow cell 1 and 3 was used as the reference surface. For kinetic analysis, rate equations derived from the 1:1 Langmuir binding model were fitted simultaneously to association and dissociation phases of all eight injections (using global fit analysis) with the use of Biaevaluation 4.0.1 software. Purified antibodies or DVD-Ig proteins were diluted in HEPES-buffered saline for capture across goat anti-mouse IgG specific reaction surfaces. Antibodies or DVD-Ig proteins to be captured as a ligand (25 μg/ml) were injected over reaction matrices at a flow rate of 5 μl/minute. The association and dissociation rate constants, kₒₙ (M⁻¹s⁻¹) and koff (s⁻¹) were determined under a continuous flow rate of 25 μl/minute. Rate constants were derived by making kinetic binding measurements at different antigen concentrations ranging from 10-200 nM. The equilibrium dissociation constant (M) of the reaction between antibodies or DVD-Ig proteins and the target antigen was then calculated from the kinetic rate constants by the following formula: KD=koff/kₒₙ. Binding was recorded as a function of time and kinetic rate constants were calculated.

B2: DVD2278 (bispecific antibody)
VH: EVQLVQSGAEVKKPGSSVKVSCKASGGTFSSYAISWVRQAPGQGLEWMGGIIPIFGTANYAQKFQGRVTITADKSTSTAYMELSSLRSEDTAVYYCARAPLRFLEWSTQDHYYYYYMDVWGKGTTVTVSSASTKGPEVQLVESGGGLVQPGGSLRLSCAASGFTFSIYSMNWVRQAPGKGLEWVSYISSSSSTIYYADSVKGRFTISRDNAKNSLYLQMNSLRDEDTAVYYCARDRGDFDAFDIWGQGTMVTVSS
VL: SSELTQDPAVSVALGQTVRITCQGDSLRSYYATWYQQKPGQAPILVIYGENKRPSGIPDRFSGSSSGNTASLTITGAQAEDEADYYCKSRDGSGQHLVFGGGTKLTVLGQPKAAPDIQMTQSPSSLSASVGDRVTITCQASQDITNYLNWYQQKPGKAPKLLIYDASNLETGVPSRFSGSGSGTDFTFTISSLQPEDIATYNCQQCENFPITFGQGTRLEIK
notes: DVD-Ig, outer AB075 / inner AB063
Kd [2]: 8.6 nM
koff [2]: 0.00021 s⁻¹
kon [2]: 25000 M⁻¹ s⁻¹

B5: DVD2209 (bispecific antibody)
VH: QVQLQESGPGLVKPSEILSLTCTVSGGSISSHYWSWVRQPPGKGLEWIGYIYYSGSTNYNPSLKSRVTISVDTSKNQFSLNLSSVTAADTAVYYCARIPNYYDRSGYYPGYWYFDLWGRGTLVTVSSASTKGPEVQLVQSGGGLVKPGGSLRLSCAASGFTFSSYAMHWVRQAPGKGLEWVAVISYDGSNKYYADSVKGRFTISRDNSKNTLYLQMNSLRAEDTAVYYCARFSGWPNNYYYYGMDVWGQGTTVTVSS
VL: QAVLTQPSSLSAPPGASASLTCTLRSGFNVDSYRISWYQQKPGSPPQYLLRYKSDSDKQQGSGVPSRFSGSKDASANAGILLISGLQSEDEADYYCMIWHSSAWVFGGGTKLTVLRTVAAPDVVMTQSPLSLPVTPGEPASISCRSSQSLLHSNGFNYVDWYLQKPGQSPHLLIYFGSYRASGVPDRFSGSGSGTDFTLKISRVEAEDVGVYYCMQALQTPPWTFGQGTKVEIR
notes: DVD-Ig, outer AB034 / inner AB005
Kd [4]: 23 nM

B6: DVD2213 (bispecific antibody)
VH: QVQLQESGPGLVKPSEILSLTCTVSGGSISSHYWSWVRQPPGKGLEWIGYIYYSGSTNYNPSLKSRVTISVDTSKNQFSLNLSSVTAADTAVYYCARIPNYYDRSGYYPGYWYFDLWGRGTLVTVSSASTKGPSVFPLAPEVQLVQSGGGLVKPGGSLRLSCAASGFTFSSYAMHWVRQAPGKGLEWVAVISYDGSNKYYADSVKGRFTISRDNSKNTLYLQMNSLRAEDTAVYYCARFSGWPNNYYYYGMDVWGQGTTVTVSS
VL: B5 VL
notes: as for B5
Kd [4]: 18 nM

B7: DVD2211 (bispecific antibody)
VH: B5 VH
VL: QAVLTQPSSLSAPPGASASLTCTLRSGFNVDSYRISWYQQKPGSPPQYLLRYKSDSDKQQGSGVPSRFSGSKDASANAGILLISGLQSEDEADYYCMIWHSSAWVFGGGTKLTVLRTVAAPSVFIFPPDVVMTQSPLSLPVTPGEPASISCRSSQSLLHSNGFNYVDWYLQKPGQSPHLLIYFGSYRASGVPDRFSGSGSGTDFTLKISRVEAEDVGVYYCMQALQTPPWTFGQGTKVEIR
notes: as for B5
Kd [4]: 15 nM

B9: DVD2208 (bispecific antibody)
VH: EVQLVQSGGGLVKPGGSLRLSCAASGFTFSSYAMHWVRQAPGKGLEWVAVISYDGSNKYYADSVKGRFTISRDNSKNTLYLQMNSLRAEDTAVYYCARFSGWPNNYYYYGMDVWGQGTTVTVSSASTKGPQVQLQESGPGLVKPSEILSLTCTVSGGSISSHYWSWVRQPPGKGLEWIGYIYYSGSTNYNPSLKSRVTISVDTSKNQFSLNLSSVTAADTAVYYCARIPNYYDRSGYYPGYWYFDLWGRGTLVTVSS
VL: DVVMTQSPLSLPVTPGEPASISCRSSQSLLHSNGFNYVDWYLQKPGQSPHLLIYFGSYRASGVPDRFSGSGSGTDFTLKISRVEAEDVGVYYCMQALQTPPWTFGQGTKVEIRRTVAAPQAVLTQPSSLSAPPGASASLTCTLRSGFNVDSYRISWYQQKPGSPPQYLLRYKSDSDKQQGSGVPSRFSGSKDASANAGILLISGLQSEDEADYYCMIWHSSAWVFGGGTKLTVL
notes: DVD-Ig, outer AB005 / inner AB034
Kd [4]: 16 nM
koff [4]: 0.0013 s⁻¹
kon [4]: 83000 M⁻¹ s⁻¹

B10: DVD2212 (bispecific antibody)
VH: EVQLVQSGGGLVKPGGSLRLSCAASGFTFSSYAMHWVRQAPGKGLEWVAVISYDGSNKYYADSVKGRFTISRDNSKNTLYLQMNSLRAEDTAVYYCARFSGWPNNYYYYGMDVWGQGTTVTVSSASTKGPSVFPLAPQVQLQESGPGLVKPSEILSLTCTVSGGSISSHYWSWVRQPPGKGLEWIGYIYYSGSTNYNPSLKSRVTISVDTSKNQFSLNLSSVTAADTAVYYCARIPNYYDRSGYYPGYWYFDLWGRGTLVTVSS
VL: B9 VL
notes: as for B9
Kd [4]: 16 nM
koff [4]: 0.0012 s⁻¹
kon [4]: 74000 M⁻¹ s⁻¹

B11: DVD2210 (bispecific antibody)
VH: B9 VH
VL: DVVMTQSPLSLPVTPGEPASISCRSSQSLLHSNGFNYVDWYLQKPGQSPHLLIYFGSYRASGVPDRFSGSGSGTDFTLKISRVEAEDVGVYYCMQALQTPPWTFGQGTKVEIRRTVAAPSVFIFPPQAVLTQPSSLSAPPGASASLTCTLRSGFNVDSYRISWYQQKPGSPPQYLLRYKSDSDKQQGSGVPSRFSGSKDASANAGILLISGLQSEDEADYYCMIWHSSAWVFGGGTKLTVL
notes: as for B9
Kd [4]: 15 nM
koff [4]: 0.0017 s⁻¹
kon [4]: 110000 M⁻¹ s⁻¹

Next, values leading:

Kd [1]: 19 nM
koff [1]: 0.00089 s⁻¹
kon [1]: 46000 M⁻¹ s⁻¹
B1: DVD2316 (bispecific antibody)
VH: EVQLVQSGGGLVKPGGSLRLSCAASGFTFSSYAMHWVRQAPGKGLEWVAVISYDGSNKYYADSVKGRFTISRDNSKNTLYLQMNSLRAEDTAVYYCARFSGWPNNYYYYGMDVWGQGTTVTVSSASTKGPEVQLVESGGGLVQPGGSLRLSCAASGFTFTDYTMDWVRQAPGKGLEWVADVNPNSGGSIYNQRFKGRFTLSVDRSKNTLYLQMNSLRAEDTAVYYCARNLGPSFYFDYWGQGTLVTVSS
VL: DVVMTQSPLSLPVTPGEPASISCRSSQSLLHSNGFNYVDWYLQKPGQSPHLLIYFGSYRASGVPDRFSGSGSGTDFTLKISRVEAEDVGVYYCMQALQTPPWTFGQGTKVEIRRTVAAPDIQMTQSPSSLSASVGDRVTITCKASQDVSIGVAWYQQKPGKAPKLLIYSASYRYTGVPSRFSGSGSGTDFTLTISSLQPEDFATYYCQQYYIYPYTFGQGTKVEIK
notes: DVD-Ig, outer AB005 / inner AB080

Kd [3]: 6.1 nM
koff [3]: 0.00024 s⁻¹
kon [3]: 40000 M⁻¹ s⁻¹
B3: DVD2281 (bispecific antibody)
VH: EVQLLESGGGLVQPGGSLRLSCAASGFTFSHYVMAWVRQAPGKGLEWVSSISSSGGWTLYADSVKGRFTISRDNSKNTLYLQMNSLRAEDTAVYYCTRGLKMATIFDYWGQGTLVTVSSASTKGPEVQLVQSGAEVKKPGSSVKVSCKASGGTFSSYAISWVRQAPGQGLEWMGGIIPIFGTANYAQKFQGRVTITADKSTSTAYMELSSLRSEDTAVYYCARAPLRFLEWSTQDHYYYYYMDVWGKGTTVTVSS
VL: QSALTQPASVSGSPGQSITISCTGTSSDVGSYNVVSWYQQHPGKAPKLIIYEVSQRPSGVSNRFSGSKSGNTASLTISGLQTEDEADYYCCSYAGSSIFVIFGGGTKVTVLGQPKAAPSSELTQDPAVSVALGQTVRITCQGDSLRSYYATWYQQKPGQAPILVIYGENKRPSGIPDRFSGSSSGNTASLTITGAQAEDEADYYCKSRDGSGQHLVFGGGTKLTVL
notes: DVD-Ig, outer AB116 / inner AB075

Kd [2]: 5.2 nM
koff [2]: 0.00013 s⁻¹
kon [2]: 25000 M⁻¹ s⁻¹
B4: DVD2282 (bispecific antibody)
VH: EVQLVQSGAEVKKPGSSVKVSCKASGGTFSSYAISWVRQAPGQGLEWMGGIIPIFGTANYAQKFQGRVTITADKSTSTAYMELSSLRSEDTAVYYCARAPLRFLEWSTQDHYYYYYMDVWGKGTTVTVSSASTKGPQVQLQQWGAGLLKPSETLSLTCAVYGGSFSGYYWSWIRQPPGKGLEWIGEINHSGSTNYNPSLKSRVTISVETSKNQFSLKLSSVTAADTAVYYCARDKWTWYFDLWGRGTLVTVSS
VL: SSELTQDPAVSVALGQTVRITCQGDSLRSYYATWYQQKPGQAPILVIYGENKRPSGIPDRFSGSSSGNTASLTITGAQAEDEADYYCKSRDGSGQHLVFGGGTKLTVLGQPKAAPDIEMTQSPDSLAVSLGERATINCRSSQSVLYSSSNRNYLAWYQQNPGQPPKLLIYWASTRESGVPDRFSGSGSGTDFTLTISSLQAEDVAVYYCQQYYSTPRTFGQGTKVEIK
notes: DVD-Ig, outer AB075 / inner AB062

Kd [2]: 12 nM
koff [2]: 0.00026 s⁻¹
kon [2]: 22000 M⁻¹ s⁻¹
B8: DVD2288 (bispecific antibody)
VH: EVQLVQSGAEVKKPGSSVKVSCKASGGTFSSYAISWVRQAPGQGLEWMGGIIPIFGTANYAQKFQGRVTITADKSTSTAYMELSSLRSEDTAVYYCARAPLRFLEWSTQDHYYYYYMDVWGKGTTVTVSSASTKGPEVQLVESGGGLVQPGGSLRLSCAASGFTFTDYTMDWVRQAPGKGLEWVADVNPNSGGSIYNQRFKGRFTLSVDRSKNTLYLQMNSLRAEDTAVYYCARNLGPSFYFDYWGQGTLVTVSS
VL: SSELTQDPAVSVALGQTVRITCQGDSLRSYYATWYQQKPGQAPILVIYGENKRPSGIPDRFSGSSSGNTASLTITGAQAEDEADYYCKSRDGSGQHLVFGGGTKLTVLGQPKAAPDIQMTQSPSSLSASVGDRVTITCKASQDVSIGVAWYQQKPGKAPKLLIYSASYRYTGVPSRFSGSGSGTDFTLTISSLQPEDFATYYCQQYYIYPYTFGQGTKVEIK
notes: DVD-Ig, outer AB075 / inner AB080
